Assay [1] addresses T1, human CD94 expressed on cells (human primary NK cells in PBMCs; HEK cells expressing human CD94) (human, UniProt Q13241 1-179).
T1 sequence (looked up): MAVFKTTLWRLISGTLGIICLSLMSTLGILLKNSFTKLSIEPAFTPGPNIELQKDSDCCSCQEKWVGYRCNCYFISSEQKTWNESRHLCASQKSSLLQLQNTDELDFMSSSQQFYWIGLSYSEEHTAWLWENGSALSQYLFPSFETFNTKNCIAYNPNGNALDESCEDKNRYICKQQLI
In words: cell-based or functional assay.

Assay [2] deals with T1, human CD94 expressed on cells (human …). Description: flow cytometry, HEK cells expressing human CD94, 1st run. Here is the method:
(§1) Binding of the variant antibodies to HEK cells expressing human CD94 was also tested. Variants and ATX-130 antibodies were generated in human IgG1 form, and binding to HEK cells expressing human CD94 was assessed using flow cytometry. Experiments were run in duplicate, and the average EC50 of the 2 runs was calculated.

The target is the same in assay [3]. Description: flow cytometry, HEK cells expressing human CD94, 2nd run. Here is the method:
as §1

Assay [4] has the same target. In words: flow cytometry, HEK cells expressing human CD94, average of 2 runs. The procedure: as §1
For assay [5], the target named is T2, cynomolgus CD94 expressed on HEK293 cells (cynomolgus monkey, UniProt Q68VD4 1-179).
T2 construct: also called cyno-CD94; cynomolgus monkey CD94
T2 sequence: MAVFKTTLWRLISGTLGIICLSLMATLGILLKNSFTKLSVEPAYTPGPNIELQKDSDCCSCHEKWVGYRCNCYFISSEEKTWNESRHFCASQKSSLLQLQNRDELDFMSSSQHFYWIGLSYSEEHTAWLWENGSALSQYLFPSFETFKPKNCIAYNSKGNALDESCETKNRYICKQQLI
Description: flow cytometry, cynomolgus CD94-expressing HEK293 cells. The source says:
Anti-CD94 hybridoma supernatants were screened on cynomolgus CD94-expressing HEK293 cells by flow cytometry for cross-reactivity to cynomolgus CD94. HP-3D9 is a commercial anti-CD94 antibody that was used as a negative control. Mouse IgG1, IgG2a, IgG2b and IgG3 were used as negative controls. […] Commercially available anti-CD94 antibodies were used to test cynomolgus cross-reactivity. 18H3 was used as a positive control. The MFI of each antibody was normalized to the MFI of its respective isotype.
Cynomolgus CD94-expressing HEK293 cells were seeded in 96-well plates at a density of 100,000 cells per well, incubated with cell viability dye (Thermo Fisher) for 30 minutes on ice and protected from light. The cells were washed once with FACS buffer (PBS with 2% IgG low FBS). Hybridoma supernatants, anti-CD94 antibodies and isotype controls were incubated with cells for 30 minutes on ice and protected from light. […] After incubation, the cells received a final wash in FACS buffer before quantification on the Cytoflex (Beckman Coulter). All data acquisition and fluorescence compensation were performed using CytoFlex (Beckman Coulter, Atlanta, GA). […] CD94 expression was then quantified on this population. […]

Assay [6] concerns the target T1, human CD94 expressed on cells (human …). Description: HLA-E tetramer blocking assay, flow cytometry on CD3-CD56+ NK cells in healthy donor PBMCs; antibody at one saturating concentration, blocked ligand PE-labelled HLA-E tetramer; percent blocking = 100-((percent HLA-E positive with antibody)/(percent HLA-E positive with isotype)*100). Here is the method:
Healthy donor PBMCs were incubated with anti-CD94 antibodies. PE labeled HLA-E tetramer was then incubated with the cell and antibody mixture, and detected using flow cytometry. For HP-3B1, 131412, 12K45, DX22, 1M4 and 1E4, 2.5 μl of HLA-E tetramer reagent was used, while 5 μl was used for 18H3 and HP-3D9. Saturating concentrations of each antibody was used in this assay. The percent blocking was calculated as 100−((percent HLA-E positive for anti-CD94 antibody)/(percent HLA-E positive for isotype)*100).
Healthy donor PBMCs were seeded in 96-well plates at a density of 100,000 cells per well, incubated with human Fc block (Biolegend) and cell viability dye (Thermo Fisher) for 30 minutes on ice and protected from light. The cells were washed once with FACS buffer (PBS with 2% IgG low FBS). anti-CD94 antibodies at EC80 concentrations were incubated with cells for 30 minutes on ice and protected from light. After incubation with the anti-CD94 antibodies, the cells were washed and incubated with HLA-E tetramer PE (Creative Biolabs), anti-CD3 pacific blue-labelled, and anti-CD56 FITC-labelled antibodies (Biolegend) for 30 minutes on ice and protected from light. The cells then received a final wash in FACS buffer before quantification on the Cytoflex (Beckman Coulter). All data acquisition and fluorescence compensation were performed using CytoFlex (Beckman Coulter, Atlanta, GA). Data analysis was performed using FlowJo software. NK cells were identified through gating on lymphocytes on the forward and side scatter, followed by doublet and dead cell exclusion, and gated on the CD3−CD56+ population. HLA-E expression was then quantified on the CD3−CD56+NK cell population. Percent blocking was calculated as 100−((percent HLA-E positive for anti-CD94 antibody)/(percent HLA-E positive for isotype)*100).

Assay [7] shares this target. In words: flow cytometry titration on CD3-CD56+ NK cells in healthy donor PBMCs; 'Affinity on Human NK Cells'; the filing derives these affinities as EC50 of titration curves (the 2.6nM of 18H3 is labelled EC50 in FIG. 1). Here is the method:
Healthy donor PBMCs were seeded in 96 well plates at a density of 100,000 cells per well, incubated with human Fc block (Biolegend) and cell viability dye (Thermo Fisher) for 30 minutes on ice and protected from light. The cells were washed once with FACS buffer (PBS with 2% IgG low FBS). anti-CD94 antibodies at concentrations of 100 nM to 0.046 nM, 1:3-fold dilutions, were incubated with cells for 30 minutes on ice and protected from light. The cells were then washed and incubated with goat IgG anti-mouse Fey specific AF647 secondary antibody or goat (Fab)2 fragment anti-human Fey specific AF647 secondary antibody (Jackson immuno research), anti-CD3 pacific blue-labelled and anti-CD56 FITC-labelled antibodies (Biolegend) for 30 minutes on ice and protected from light. After incubation, the cells received a final wash in FACS buffer before quantification on the Cytoflex (Beckman Coulter). All data acquisition and fluorescence compensation were performed using CytoFlex (Beckman Coulter, Atlanta, GA). Data analysis was performed using FlowJo software. NK cells were identified through gating on lymphocytes on the forward and side scatter, followed by doublet and dead cell exclusion, and gated on the CD3−CD56+ population. CD94 expression was then quantified on the CD3−CD56+NK cell population. […]
The affinity of the antibody clones was also assessed by flow cytometry analysis.

B1: 18H3-KIF (partially non-fucosylated human IgG1 18H3 produced in Expi-CHO cells with kifunensine) (antibody, V domains shown)
VH: EVQLVQSGAEVKKPGESLKISCKGSGYRFTSYWIGWVRQMPGKGLEWMGIIYPGDSDTRYSPSFQGQVIISADKSITTAFLQWSSLKASDTAMYYCARPFDYGGSPGYFDYWGQGTLVTVSS
VL: DIQMTQSPSTLSASVGDRVTITCRASQSIRSWLAWYQQKPGKAPKLLIYKASSLESGVPSRFSGSGSGTEFTLTISSLQPDDFATYYCQQYNTFWTFGQGTKVEIK
For the molecule B1, in assay [1], the “IC50 of CLPD-NK leukemic cell depletion, ADCC assay with CLPD-NK patient PBMCs” value was found to be 0.059 µg/mL and the “IC50 of NK cell depletion, ADCC assay with healthy donor PBMCs” value was 0.02 µg/mL.

B2: Ab.28 hG1 (antibody, V domains shown)
VH: EVQLLESGGGLVKPGGSLRLSCAASGFTFSSYSMNWVRQAPGKGLEWVSSISTSSNFIYYADSVKGRFTISRDNAKNSLYLQMNSLRAEDTAVYYCARDLGRYYYYMDVWGKGTTVTVSS
VL: DIVMTQSPSSLSASVGDRVTITCRASQSISSWLAWYQQKPEKAPKSLIYAASSLQSGVPSKFSGSGSGTDFTLTISSLQPEDVATYYCQKYNSAPFTFGPGTKVDIK
notes: Human IgG1 form; also called Ab.28 human IgG1
Take B2: the half-maximal effective concentration (EC50) in assay [2], in assay [3] and in assay [4] was 0.11 nM each time.

B3: Ab.34 hG1 (antibody, V domains shown)
VH: EVQLLESGGGLVKPGGSLRLSCAASGFTFSSYSMNWVRQAPGKGLEWVSSISTSSNFIYYADSVKGRFTISRDNAKNSLYLQMNSLRAEDTAVYYCARDLGRYYYYMDVWGKGTTVTVSS
VL: DIVMTQSPSSLSASVGDRVTITCRASQSISSWLAWYQQKPGKAPKSLIYAASSLQSGVPSKFSGSGSGTDFTLTISSLQPEDVATYYCQKYNSYPFTFGPGTKVDIK
notes: Human IgG1 form; also called Ab.34 human IgG1
On to B3, for which the 50% effective concentration (EC50) in assay [2] worked out at 0.16 nM; in assay [3], 0.13 nM; in assay [4], 0.15 nM.

B4: Ab.29 hG1 (antibody, V domains shown)
VH: EVQLLESGGGLVKPGGSLRLSCAASGFTFSSYSMNWVRQAPGKGLEWVSSISTSSNFIYYADSVKGRFTISRDNAKNSLYLQMNSLRAEDTAVYYCARDLGRYYYYMDVWGKGTTVTVSS
VL: DIVMTQSPSSLSASVGDRVTITCRASQSISSWLAWYQQKPGKVPKSLIYAASSLQSGVPSKFSGSGSGTDFTLTISSLQPEDVATYYCQKYNSAPFTFGPGTKVDIK
notes: Human IgG1 form; also called Ab.29 human IgG1
Take B4: the half-maximal effective concentration (EC50) in assay [2] turned out to be 0.18 nM; in assay [3], 0.13 nM; in assay [4], 0.16 nM.

B5: Ab.32 hG1 (antibody, V domains shown)
VH: EVQLLESGGGLVKPGGSLRLSCAASGFTFSSYSMNWVRQAPGKGLEWVSSISTSSNFIYYADSVKGRFTISRDNAKNSLYLQMNSLRAEDTAVYYCARDLGRYYYYMDVWGKGTTVTVSS
VL: DIVMTQSPSSLSASVGDRVTITCRASQSISSWLAWYQQKPGKAPKSLIYAASSLQSGVPSKFSGSGSGTDFTLTISSLQPEDFATYYCQKYNSAPFTFGPGTKVDIK
notes: Human IgG1 form; also called Ab.32 human IgG1
As for B5, the results for the EC50 in assay [2], in assay [3] and in assay [4] were 0.12 nM, 0.11 nM and 0.12 nM, respectively.

B6: Ab.33 hG1 (antibody, V domains shown)
VH: EVQLLESGGGLVKPGGSLRLSCAASGFTFSSYSMNWVRQAPGKGLEWVSSISTSSNFIYYADSVKGRFTISRDNAKNSLYLQMNSLRAEDTAVYYCARDLGRYYYYMDVWGKGTTVTVSS
VL: DIVMTQSPSSLSASVGDRVTITCRASQSISSWLAWYQQKPGKAPKSLIYAASSLQSGVPSKFSGSGSGTDFTLTISSLQPEDVATYYCQQYNSAPFTFGPGTKVDIK
notes: Human IgG1 form; also called Ab.33 human IgG1
In the case of B6, the EC50 in assay [2] worked out at 0.25 nM; in assay [3], 0.13 nM; in assay [4] it was 0.19 nM.

B7: Ab.31 hG1 (antibody, V domains shown)
VH: EVQLLESGGGLVKPGGSLRLSCAASGFTFSSYSMNWVRQAPGKGLEWVSSISTSSNFIYYADSVKGRFTISRDNAKNSLYLQMNSLRAEDTAVYYCARDLGRYYYYMDVWGKGTTVTVSS
VL: DIVMTQSPSSLSASVGDRVTITCRASQSISSWLAWYQQKPGKAPKSLIYAASSLQSGVPSRFSGSGSGTDFTLTISSLQPEDVATYYCQKYNSAPFTFGPGTKVDIK
notes: Human IgG1 form; also called Ab.31 human IgG1
In the case of B7, the EC50 in assay [2] came out at 0.1 nM; in assay [3] it was 0.12 nM; in assay [4], 0.11 nM.

B8: anti-CD94 antibody clone 1M4 (antibody, V domains shown)
VH: QLVESGGGLVQPGGSLRLACAASGFTFSNYAMNWVRQAPGKGLEWVSVISGSGDTTYCADSVKGRFTISRDNSKNTLHLQLNSLRAEDTAVYYCAKNCYGSGSYYNHFDYWGQGTLVTVSS
VL: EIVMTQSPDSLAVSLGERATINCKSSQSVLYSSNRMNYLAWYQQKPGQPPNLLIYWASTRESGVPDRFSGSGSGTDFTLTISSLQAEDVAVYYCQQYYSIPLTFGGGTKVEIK
As for B8, the “percent decrease in MFI (antibody internalization assay), comparing 0.5 hours to 24 hours at 37° C.” value in assay [1] is 32%. Also, the binding result in assay [5] is on record as “binds”. The “HLA-E Blocking” value in assay [6] came out at 0%. The same molecule had an EC50 in assay [7] of 7 nM.

The record behind these values is US20250197505A1 (DREN BIO, published 2025).
